Measured values taken from patent US20250326826A1 (CENTRO DE INGENIER A GEN TICA Y BIOTECNOLOG A, published 2025).
Like-named read-outs stand apart in the source and are kept apart here. Values belong to the binder of their own block, whether it stands above or below them.

How the values were obtained:
[1] = target: T1, GST-hVEGF121 (human, UniProt P15692-9 27-147); assay: competition ELISA, coated GST-hVEGF, competitor Fc-VEGFR2
T1 construct: plate coating of the VEGF ELISAs; also called human VEGF; not shown: glutathione S-transferase (GST) fusion partner
T1 sequence (looked up): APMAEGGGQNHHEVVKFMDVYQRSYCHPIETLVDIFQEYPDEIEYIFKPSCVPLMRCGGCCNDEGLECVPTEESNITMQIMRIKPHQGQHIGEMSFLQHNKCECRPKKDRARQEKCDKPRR
Method: (§1) The ability of VHHs to hinder receptors for binding to their ligand was assessed by ELISA, for which 96-well plates (NUNC, USA) were coated with GST-hVEGF or bFGF and blocked as described in the previous section. Serial 1:2 dilutions of the purified VHHs, from […] to […], were added and the plates and incubated for 1 h at 37° C. In this step, some wells were left where only PBS-milk was added. […] After 45 min incubation at 37° C., plates were washed with PBS-0.05% Tween. To detect receptor binding, HRP-conjugated anti-human IgG antibody was added, diluted 1:5000 in PBS-0.5% milk. After incubation for 1 h at 37° C., the plates were washed with PBS-Tween, and TMB was added. The reaction was stopped after 10 min. Wells incubated with the receptors without the addition of the antibody fragments were taken as reference for maximum binding in the absence of competitor. In this assay, in the case of inhibition of the VEGF/VEGFR axis, the CIGB166a antibody fragment was used as a positive control, and an anti-FGF polyclonal antibody was used for the FGF/FGFR axis. The percentage of inhibition of receptor binding to its ligand was calculated as follows: […]
The biological effect of VEGF is a consequence of its binding to two fundamental receptors (VEGFR1 and VEGFR2), so for a polypeptide that binds to VEGF to be effective in the therapeutic setting, it must block these interactions (Shibuya, Cell Structure and Function, 2001: 26: 25-35). The ability of Nb-V1 to compete with receptors 1 and 2 for binding to its ligand (VEGF) was assessed by solid phase ligand competition ELISA, as described above.

[2] = target: bFGF (soluble stimulus added to cell cultures); assay: cell-based or functional assay
[3] = target: VEGF (soluble stimulus added to cell cultures); assay: cell-based or functional assay
Chain of VEGF (soluble stimulus added to cell cultures) (P15692 whole entry): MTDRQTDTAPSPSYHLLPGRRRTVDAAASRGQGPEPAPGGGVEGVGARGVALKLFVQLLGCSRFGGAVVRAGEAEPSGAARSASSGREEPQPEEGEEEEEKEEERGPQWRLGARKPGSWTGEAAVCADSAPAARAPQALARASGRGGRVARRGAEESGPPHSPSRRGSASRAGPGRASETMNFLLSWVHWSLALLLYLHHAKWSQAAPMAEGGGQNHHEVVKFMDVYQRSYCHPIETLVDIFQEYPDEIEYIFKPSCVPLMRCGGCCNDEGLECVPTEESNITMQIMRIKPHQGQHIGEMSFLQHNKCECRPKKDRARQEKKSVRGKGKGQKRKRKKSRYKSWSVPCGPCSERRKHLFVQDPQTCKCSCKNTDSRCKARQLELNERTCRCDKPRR

[4] = target: Human VEGF (dendritic cell assay) (human, UniProt P15692-4 27-191, limits assumed); assay: cell-based or functional assay
[5] = target: T1, GST-hVEGF121; assay: ELISA, coated GST-hVEGF
Method: (§2) The 96-well plates were coated with 100 μL/well of a solution of GST-hVEGF121, GST-mVEGF120, or GST at a concentration of 20 μg/mL, or with a solution of VEGFKDR- at a concentration of 10 μg/mL, or hFGF-2 or mFGF-2 at a concentration of 5 μg/mL in 1×PBS for 16 hours at 4° C. After the plates were blocked with PBS-5% skim milk for one hour, 1:2 serial dilutions of the purified VHHs were added, starting at 2 μg/mL in PBS-0.5% skim milk. The plates were incubated for 1 hour at 37° C. and after several washes, the monoclonal antibody 9E10, specific for c-myc, was added. After one hour of incubation at 25° C. the plates were washed thoroughly. The binding of the fragment to the antigen in the solid phase was detected by the peroxidase activity using 100 μL/well of TMB. The reaction was stopped with 50 μL/well of stop solution, and absorbance values at 450 nm were determined in a microtiter plate reader.
SEQ ID NO: 18 and SEQ ID NO: 19, and the bivalent Nb-VV6 and Nb-FF2, with sequences identified as SEQ ID NO: 20 and SEQ ID NO: 21, were expressed and purified as described in the Example 1. […] The biological activity of the polypeptides was evaluated by ELISA for recognition of the VEGF and bFGF antigens, and by their ability to displace VEGF and bFGF binding to their respective VEGFR2 and FGFR1 receptors. […]

[6] = target: VEGF (soluble stimulus added to cell cultures); assay: cell-based or functional assay; remark: listed apart in the source
[7] = target: T1, GST-hVEGF121; assay: ELISA, coated GST-hVEGF; remark: listed apart in the source
Method: as §2

[8] = target: T1, GST-hVEGF121; assay: ELISA, coated GST-hVEGF; remark: listed apart in the source
[9] = target: T2, Recombinant human bFGF (human, UniProt P09038 143-288, limits assumed); assay: ELISA, coated human bFGF
T2 construct: Bought (Sigma); also called hFGF-2; human basic fibroblast growth factor
T2 sequence (P09038 143-288 limits assumed): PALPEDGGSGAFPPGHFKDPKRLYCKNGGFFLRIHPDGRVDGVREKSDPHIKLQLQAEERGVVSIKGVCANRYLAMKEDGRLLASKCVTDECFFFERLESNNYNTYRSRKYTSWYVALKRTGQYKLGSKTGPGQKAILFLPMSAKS

[10] = target: T1, GST-hVEGF121; assay: competition ELISA, coated GST-hVEGF, competitor Fc-VEGFR2; remark: listed apart in the source
[11] = target: T2, Recombinant human bFGF; assay: competition ELISA, coated bFGF, competitor Fc-FGFR1
[12] = target: T2, Recombinant human bFGF; assay: ELISA, coated human bFGF; remark: listed apart in the source
Method: as §2
SEQ ID NO: 18 and SEQ ID NO: 19, and the bivalent Nb-VV6 and Nb-FF2, with sequences identified as SEQ ID NO: 20 and SEQ ID NO: 21, were expressed and purified as described in the Example 1. In all cases, the purity and identity of the proteins were verified by SDS-PAGE 12% and anti-polyhistidine Western Blot. […] The experimental mass of the polypeptides and the arrangement of the disulfide bridges were checked by ESI/MS-MS. The experimental and theoretical mass, for each polypeptide coincided, with errors less than 0.0015% in all cases, and the formation of intramolecular bridges between C22-C101 and C168-C247 was verified. […] The biological activity of the polypeptides was evaluated by ELISA for recognition of the VEGF and bFGF antigens, and by their ability to displace VEGF and bFGF binding to their respective VEGFR2 and FGFR1 receptors. […] Similarly, it was shown that the ability to displace the binding of antigens by their receptors was not affected.

[13] = target: T2, Recombinant human bFGF; assay: competition ELISA, coated bFGF, competitor Fc-FGFR1; remark: listed apart in the source
Method: as §1

IC50 [1]: 5.6 nM
IC50, proliferation of HDMEC cells +bFGF (10 ng/ml) [2]: > 6000 nM
IC50, proliferation of HDMEC cells +VEGF (5 ng/ml) [3]: 30 nM
CD86 (MFI) on dendritic cells +VEGF +LPS, VHH 1 µg/mL [4]: 4200 MFI
CD86 (MFI) on dendritic cells +VEGF +LPS, VHH 5 µg/mL [4]: 6520 MFI
CD86 (MFI) on dendritic cells +VEGF +LPS, VHH 10 µg/mL [4]: 18000 MFI
MHCII (MFI) on dendritic cells +VEGF +LPS, VHH 1 µg/mL [4]: 5110 MFI
MHCII (MFI) on dendritic cells +VEGF +LPS, VHH 5 µg/mL [4]: 11200 MFI
MHCII (MFI) on dendritic cells +VEGF +LPS, VHH 10 µg/mL [4]: 18700 MFI
fold decrease of EC50 against Nb-V1 [5]: 2 fold
PD1 expression (%) in CD8+ cells treated with VEGF, VHH 1 µg/mL [6]: 52%
PD1 expression (%) in CD8+ cells treated with VEGF, VHH 5 µg/mL [6]: 41%
PD1 expression (%) in CD8+ cells treated with VEGF, VHH 10 µg/mL [6]: 36%
EC50 [7]: 1.9 nM
B1: Nb-VV6 (VHH)
chain: QVQLVESGGGLVQPGGSLRLSCAASGNSAEDRLYNSYTWFRQAPGQGLEAVAAISSHFSAGLTYYADSVKGRFTISRDNSKNTLYLQMNSLRAEDTAVYYCEITSHASHNDAWSTPRTVWGQGTLVTVSSAHHSEDPSSKAPKAPAQVQLVESGGGLVQPGGSLRLSCAASGNSAQDRLYNSYTWFRQAPGQGLEAVAAISSHFSAGLTYYADSVKGRFTISRDNSKNTLYLQMNSLRAEDTAVYYCEITSHASHNDAWSTPRTVWGQGTLVTVSSAAAGSEQKLISEEDLNSHHHHHH
notes: Bivalent monospecific tandem VHH for VEGF, hinge spacer with cysteines replaced by alanines; with c-myc and histidine tag

EC50 [8]: 4.84 nM
EC50 [9]: 11.5 nM
IC50 [10]: 28.4 nM
IC50 [11]: 137 nM
B2: Nb-VF3\cmycH6 (bispecific antibody)
chain: QVQLVESGGGLVQPGGSLRLSCAASGNSAEDRLYNSYTWFRQAPGQGLEAVAAISSHFSAGLTYYADSVKGRFTISRDNSKNTLYLQMNSLRAEDTAVYYCEITSHASHNDAWSTPRTVWGQGTLVTVSSAHHSEDPSSKAPKAPAQVQLVESGGGLVQPGGSLRLSCAASGTEDGRLLTLGGSWFRQAPGQGLEAVAAIGAGDRGGATYYADSVKGRFTISRDNSKNTLYLQMNSLRAEDTAVYYCTALYERQPQLAATKVARKWGQGTLVTVSS
notes: Nb-VF3 without c-myc tracer peptide and histidine tag

The remaining lines, values behind:

B3: Nb-F3\cmycH6 (VHH)
VHH: QVQLVESGGGLVQPGGSLRLSCAASGTEDGRLLTLGGSWFRQAPGQGLEAVAAIGAGDRGGATYYADSVKGRFTISRDNSKNTLYLQMNSLRAEDTAVYYCTALYERQPQLAATKVARKWGQGTLVTVSS
notes: Nb-F3 without c-myc tracer peptide and histidine tag
EC50 [9]: 11.5 nM
IC50 [11]: 134 nM

B4: Nb-FV1 (bispecific antibody)
chain: QVQLVESGGGLVQPGGSLRLSCAASGTEDGRLLTLGGSWFRQAPGQGLEAVAAIGAGDRGGATYYADSVKGRFTISRDNSKNTLYLQMNSLRAEDTAVYYCTALYERQPQLAATKVARKWGQGTLVTVSSAHHSEDPSSKAPKAPAQVQLVESGGGLVQPGGSLRLSCAASGNSAEDRLYNSYTWFRQAPGQGLEAVAAISSHFSAGLTYYADSVKGRFTISRDNSKNTLYLQMNSLRAEDTAVYYCEITSHASHNDAWSTPRTVWGQGTLVTVSSAAAGSEQKLISEEDLNSHHHHHH
notes: Bispecific tandem VHH (bFGF and VEGF); with c-myc and histidine tag
IC50 [1]: 28.3 nM
IC50, proliferation of HDMEC cells +bFGF (10 ng/ml) [2]: 122 nM
IC50, proliferation of HDMEC cells +VEGF (5 ng/ml) [3]: 129 nM
CD86 (MFI) on dendritic cells +VEGF +LPS, VHH 1 µg/mL [4]: 2030 MFI
CD86 (MFI) on dendritic cells +VEGF +LPS, VHH 5 µg/mL [4]: 3200 MFI
CD86 (MFI) on dendritic cells +VEGF +LPS, VHH 10 µg/mL [4]: 17500 MFI
MHCII (MFI) on dendritic cells +VEGF +LPS, VHH 1 µg/mL [4]: 4980 MFI
MHCII (MFI) on dendritic cells +VEGF +LPS, VHH 5 µg/mL [4]: 6000 MFI
MHCII (MFI) on dendritic cells +VEGF +LPS, VHH 10 µg/mL [4]: 17500 MFI
PD1 expression (%) in CD8+ cells treated with VEGF, VHH 1 µg/mL [6]: 63%
PD1 expression (%) in CD8+ cells treated with VEGF, VHH 5 µg/mL [6]: 55%
PD1 expression (%) in CD8+ cells treated with VEGF, VHH 10 µg/mL [6]: 40%
EC50 [12]: 11.5 nM
IC50 [13]: 131 nM
EC50 [7]: 4.59 nM
